According to paper PMC6607583:

Tests used:
[1] = biological target: HIV-1 NL4-3 Nef-FTS Mut1 (WL-EEEE to AA-AAAA) (HIV-1 (NL4-3 strain)) (UniProt P03406); test: pull-down; HeLa cells transiently transfected with FTS-tagged bait, cross-linked with 1 mM DSP (4 °C, 6 h), lysed in 50 mM Tris-HCl pH 7.4, 300 mM NaCl, 5 mM EDTA, 0.5% NP-40; bait isolated on Strep-Tactin resin overnight at 4 °C; endogenous prey detected by immunoblotting
[2] = biological target: HIV-1 NL4-3 Nef-FTS Mut2 (EEEE-PxxP to AAAA-AxxA) (HIV-1 (NL4-3 strain)) (UniProt P03406); test: as above

Substance: autophagy-related 9A (ATG9A) protein, endogenous in HeLa (from UniProt Q7Z3C6 1-839) (natural protein)
- Nef-ATG9A pulldown relative to WT Nef [1]: 10 % of WT Nef
- Nef-ATG9A pulldown relative to WT Nef [2]: 10 % of WT Nef
